Data from patent US9371520B2.

Target: purified native cellulosome of C. thermocellum ATCC 27405 (C. thermocellum ATCC 27405) (UniProt Q06851)

**Q.** Which hydrolysis of microcrystalline cellulose and pre-treated switchgrass (soluble reducing sugars) does the source give for “wild-type (WT) BglA, β-glucosidase A from C. thermocellum, as cloned (enzyme)” here?
**A.** Its hydrolysis of microcrystalline cellulose and pre-treated switchgrass (soluble reducing sugars) is 2.06 fold.

**Q.** For “BglA-CohII (chimaeric C. thermocellum β-glucosidase A fused to the type-II cohesin module of the Orf2p anchoring protein) (enzyme)”, which hydrolysis of microcrystalline cellulose and pre-treated switchgrass (soluble reducing sugars) is on record?
**A.** The hydrolysis of microcrystalline cellulose and pre-treated switchgrass (soluble reducing sugars) was 2.68 fold.
